By Kd is commonly meant the free concentration of one partner at which half of the binding sites on the other are occupied at equilibrium, for simple one-to-one binding. Lower therefore signals a tighter complex.

For this assay, the target named is ACE2-Fc-TD. The experiment in a line: SPR. Background: In SPR one partner is held on a chip, and binding of the other changes the refractive index at the surface.

Regarding “SARS-CoV-2 S1 domain, B.1.1.7 (alpha variant) (from UniProt P0DTC2 14-681) (domain or fragment)”, the Half-life (ln2/kd) (s (from ln2/kd)) worked out at 1190 and the dissociation constant Kd was determined as 1.73 nM.

Regarding “SARS-CoV-2 S1 domain, B.1.351 (beta variant) (from UniProt P0DTC2 14-681) (domain or fragment)”, the Half-life (ln2/kd) (s (from ln2/kd)) is 454.

Substance “SARS-CoV-2 S1 domain, D614G (from UniProt P0DTC2 14-681) (domain or fragment)” showed a dissociation constant (Kd) of 6.91 nM.
